Experiment: Determination of S from retention time shift Δ relative to P3 at two gradient slopes, nano-RP-HPLC MS of spiked tryptic digest
Type: physicochemical
Settings: for Slope (experimental): LC-MS runs of model peptide mixture; for experimental S-value: model peptide mixture (tryptic digest of bovine proteins), 0.75 and 0.1875% acetonitrile per minute gradients, S from Δ vs. S curve of S-calibrating peptides
Method: Proteins and protein digestion. Tryptic digests of two different protein mixtures were utilized. The “test peptide mixture” contained human proteins: albumin, transferrin, fibrinogen. The “model peptide mixture” contained bovine proteins: albumin, transferrin, fibrinogen, catalase. Equimolar mixtures of the proteins were prepared, reduced with DTT, alkylated with iodoacetamide and digested with sequencing-grade modified trypsin (Promega, Madison, Wis.). Prior to nano-LC MS/MS analysis, mixtures were diluted with buffer A (0.1% formic acid in water) and spiked with the 6 standard peptides P1-P6^24 for test mixture and the set of 11 model peptides (described elsewhere^23) for a model mixture. All dilutions were performed to provide an injection of ˜100 fmole of each component into the nanoRP-HPLC MS system.
Chromatography. All chromatographic experiments were conducted at a controlled temperature of 22-23° C. For isocratic measurement of the slope values, a micro-Agilent 1100 Series system (Agilent Technologies, Wilmington, Del.), was used with a 1 mm×100 mm 5 μm Luna C18(2) (Phenomenex, Torrance, Calif.) column and a UV detector operated at 214 nm. Both eluents A (water) and B (acetonitrile) contained 0.1% formic acid as ion-pairing modifier. Stock solutions of the 11 standard peptides (˜1 mg/ml) were prepared by dissolving each peptide in 1 ml of 0.1% FA in water or a 20% acetonitrile solution. Ten microliters of sample was injected. Individual peptides were diluted to provide ˜0.5-1 μg injection of each component using a 10 μl loop. The dead volume of the column and connecting tubings was determined by injecting a non-retained compound (water) and measuring the elution time of the negative peak at a 150 μL/min flow rate. Retention factors for isocratic elution were calculated using the formula: k=(tR−t0)/t0c; where tR is the retention time, t0 is the system (column and tubings) dead time, and t0c is the column dead time. Additional details of measuring S-values via constructing log k vs. φ plots are provided elsewhere.^24 The nano-LC MS/MS experiments were conducted using splitless Tempo LC system (Eksigent, Dublin, Calif.) with 20 μL sample injection via a 300 μm×5 mm PepMap100 (Dionex, Sunnyvale, Calif.) trap-column and a 100 μm×200 mm analytical column packed with 5 μm Luna C18(2) (Phenomenex, Torrance, Calif.). Tryptic digests of the mixtures were spiked with calibrating peptides (see Table 1) as described above, injected on the trap-column using buffer A as a carrier and separated using 0.1875, 0.375 and 0.75 percent acetonitrile per minute linear gradients starting from 0.5% acetonitrile at 500 nL/min flow rate. The composition of both eluents A and B was identical to one described above for normal-flow system. Gradient programs consisted of a 0.5-40% linear increase of buffer B in 213.2, 106.6 and 53.3 minutes, respectively. After each run the gradient columns were washed with 80% B for 3 minutes and equilibrated with the starting A:B ratio for 18 minutes.
Mass spectrometry. A QStar Elite mass spectrometer (Applied Biosystems, Foster City, Calif.) equipped with a MicrolonSpray II source was used in standard MS/MS information dependent acquisition (IDA) mode for LC-ESI analyses. Protein identification was performed using Protein Pilot 3.0 (Applied Biosystems, Foster City, Calif.) with a restricted database containing target protein sequences and the sequences of standard peptides. Retention times of identified species (peak maxima) were assigned manually.
These two ways of measurement have been combined to provide a highly accurate and fast way of determining S for an extensive sets of peptides (see FIG. 3). First, precise isocratic measurement of S is performed in normal flow conditions with UV detection for a set of synthetic “S-calibrating” peptides. […]

Row | Substance | Slope (experimental) (experimental S value) | Slope (experimental) (experimental S, formic acid) | further results
1 | ALEHKVDLEDYK | 39.365 |  | 
2 | TSSSTFQYITLLK | 29.703 |  | 
3 | VPQVSTPTLVEVSR | 33.745 |  | 
4 | YCGVPGEYWLGNDR | 29.184 |  | 
5 | MEDEAESLEDLGFK | 29.603 |  | 
6 | SQLQEAPLEWK | 28.576 |  | 
7 | KTYDSYLGDDYVR | 35.968 |  | 
8 | HQLYIDETVK |  | 34.369 | 
9 | LAIGEGQQHQLGGAK |  | 39.74 | 
10 | KPVTEAQSCHLAVAPNHAWSR (KPVTEAQSCHLAVAPNHAVVSR) [tryptic peptide of the model peptide mixture, 5 positively charged groups] |  |  | experimental S-value (formic acid): 49.5
11 | EPISVSSQQMLK | 33.2 |  | 
12 | ESKPPDSSKDECMVK |  | 48.845 | 
13 | VLDALDSIK | 26.128 |  | 
14 | KENFEVLCK |  | 27.567 | 
15 | FDEFFSAGCAPGSPR |  | 28.654 | 
16 | NIVELMR | 24.282 |  | 
17 | ILESGPFVSCVKK | 34.299 |  | 
18 | NTPEKGYLAVAVVK | 34.392 |  | 
19 | ECVPNSNER |  | 44.66 | 
20 | MSTITGPVPR | 32.509 |  | 
21 | DLLFK [tryptic peptide detected in the model peptide mixture] |  | 18.223 | experimental S-value (formic acid): 18.2
22 | CLASIAK | 30.212 |  | 
23 | LYKELPDPQESIQR | 39.098 |  | 

Row | Substance | Slope (experimental) (experimental S value) | Slope (experimental) (experimental S, formic acid) | further results
24 | YLYEIAR | 27.362 |  | 
25 | LGAPSITCVR | 32.708 |  | 
26 | KYAAELHLVHWNTK | 39.205 |  | 
27 | SIEDLR |  | 28.058 | 
28 | ESGLYFIRPLK | 30.232 |  | 
29 | SHCIAEVEK |  | 41.223 | 
30 | LLVLAHFR | 28.115 |  | 
31 | CGLVPVLAENRK |  | 30.745 | 
32 | YNGVFQECCQAEDK |  | 32.73 | 
33 | TYDSYLGDDYVR | 31.66 |  | 
34 | LLSAADFR | 25.969 |  | 
35 | AIQISYNPDQPSKPNNIESATK | 42.444 |  | 
36 | GACLLPK |  | 25.811 | 
37 | YETLISTHESTIR | 36.09 |  | 
38 | DNPQTHYYAVAVVKK | 39.552 |  | 
39 | ECCHGDLLECADDRADLAK | 40.256 |  | 
40 | FLQEIYNSNSQK | 30.666 |  | 
41 | GDKVTALYEGFTVQNEANK |  | 35.1 | 
42 | NWIQYK | 26.629 |  | 
43 | TSTADYASFK | 30.833 |  | 
44 | LLIEMEDWKGDK | 30.791 |  | 
45 | WYSMKK | 33.268 |  | 
46 | IQALLDK | 26.395 |  | 

Row | Substance | Slope (experimental) (experimental S value) | Slope (experimental) (experimental S, formic acid) | further results
47 | LLSAAHFR | 32.998 |  | 
48 | VWPHGDYPLIPVGK | 34.183 |  | 
49 | ILNKQQDDFGK | 40.011 |  | 
50 | IQALLDKYNEEKPK | 40.311 |  | 
51 | QVLLHQQALFGK | 33.087 |  | 
52 | ANEGLTWNSLKDK |  | 32.686 | 
53 | LLSLAHFR | 29.303 |  | 
54 | RLDGSLDFK |  | 29.845 | 
55 | AAQKPDVLTTGGGNPVGDK |  | 41.223 | 
56 | DQTVIQNTDGNNNEAWAK |  | 34.721 | 
57 | CGLVPVLAENYK | 27.604 |  | 
58 | HSTVFDNLPNPEDR |  | 34.439 | 
59 | VDLEDYK | 28.987 |  | 
60 | TSDANINWNNLKDKK | 39.525 |  | 
61 | KNWIQYK | 31.919 |  | 
62 | NLNREDFR | 36.957 |  | 
63 | VIEQVQR | 38.258 |  | 
64 | QGFGNIATNAEGKK |  | 37.184 | 
65 | ECCHGDLLECADDR |  | 34.957 | 
66 | AAANFFSASCVPCADQSSFPK | 35.1 |  | 
67 | EDGSDPPSGDFLTEGGGVR |  | 30.812 | 
68 | RWQWR | 27.269 |  | 

From patent publication US8620595B2, “Methods for determining the retention of peptides in reverse phase chromatography using linear solvent strength theory” (University of Manitoba, priority 2010, dated 2013)
